Target: the molecule itself
Test: thioflavin T fluorescence (polymerization kinetics) + TEM; purified TasA 0.4 or 0.2 mg/ml in buffer (20 mM Tris, 50 mM NaCl, pH 7) or seed apoplastic fluid, 20 µM ThT, 30 °C, shaking

B1: amyloid protein TasA (natural protein, B. subtilis, UniProt P54507 28-261, looked up)
chain: AFNDIKSKDATFASGTLDLSAKENSASVNLSNLKPGDKLTKDFQFENNGSLAIKEVLMALNYGDFKANGGSNTSPEDFLSQFEVTLLTVGKEGGNGYPKNIILDDANLKDLYLMSAKNDAAAAEKIKKQIDPKFLNASGKVNVATIDGKTAPEYDGVPKTPTDFDQVQMEIQFKDDKTKDEKGLMVQNKYQGNSIKLQFSFEATQWNGLTIKKDHTDKDGYVKENEKAHSEDKN
notes: TasA, amyloid protein of the extracellular matrix of Bacillus subtilis biofilms; also called purified TasA
- binding result: binds
